# According to PMC7266993 (2020):
# B1: FLAG epitope-tagged STAG1, wild type (transient, HEK293) [human] / RAD21 (endogenous, HEK293) [human (endogenous in HEK293)] (parent complex)
# chain 1: MITSELPVLQDSTNETTAHSDAGSELEETEVKGKRKRGRPGRPPSTNKKPRKSPGEKSRIEAGIRGAGRGRANGHPQQNGEGEPVTLFEVVKLGKSAMQSVVDDWIESYKQDRDIALLDLINFFIQCSGCRGTVRIEMFRNMQNAEIIRKMTEEFDEDSGDYPLTMPGPQWKKFRSNFCEFIGVLIRQCQYSIIYDEYMMDTVISLLTGLSDSQVRAFRHTSTLAAMKLMTALVNVALNLSIHQDNTQRQYEAERNKMIGKRANERLELLLQKRKELQENQDEIENMMNSIFKGIFVHRYRDAIAEIRAICIEEIGVWMKMYSDAFLNDSYLKYVGWTLHDRQGEVRLKCLKALQSLYTNRELFPKLELFTNRFKDRIVSMTLDKEYDVAVEAIRLVTLILHGSEEALSNEDCENVYHLVYSAHRPVAVAAGEFLHKKLFSRHDPQAEEALAKRRGRNSPNGNLIRMLVLFFLESELHEHAAYLVDSLWESSQELLKDWECMTELLLEEPVQGEEAMSDRQESALIELMVCTIRQAAEAHPPVGRGTGKRVLTAKERKTQIDDRNKLTEHFIITLPMLLSKYSADAEKVANLLQIPQYFDLEIYSTGRMEKHLDALLKQIKFVVEKHVESDVLEACSKTYSILCSEEYTIQNRVDIARSQLIDEFVDRFNHSVEDLLQEGEEADDDDIYNVLSTLKRLTSFHNAHDLTKWDLFGNCYRLLKTGIEHGAMPEQIVVQALQCSHYSILWQLVKITDGSPSKEDLLVLRKTVKSFLAVCQQCLSNVNTPVKEQAFMLLCDLLMIFSHQLMTGGREGLQPLVFNPDTGLQSELLSFVMDHVFIDQDEENQSMEGDEEDEANKIEALHKRRNLLAAFSKLIIYDIVDMHAAADIFKHYMKYYNDYGDIIKETLSKTRQIDKIQCAKTLILSLQQLFNELVQEQGPNLDRTSAHVSGIKELARRFALTFGLDQIKTREAVATLHKDGIEFAFKYQNQKGQEYPPPNLAFLEVLSEFSSKLLRQDKKTVHSYLEKFLTEQMMERREDVWLPLISYRNSLVTGGEDDRMSVNSGSSSSKTSSVRNKKGRPPLHKKRVEDESLDNTWLNRTDTMIQTPGPLPAPQLTSTVLRENSRPMGDQIQEPESEHGSEPDFLHNPQMQISWLGQPKLEDLNRKDRTGMNYMKVRTGVRHAVRGLMEEDAEPIFEDVMMSSRSQLEDMNEEFEDTMVIDLPPSRNRRERAELRPDFFDSAAIIEDDSGFGMPMF
# chain 2: MFYAHFVLSKRGPLAKIWLAAHWDKKLTKAHVFECNLESSVESIISPKVKMALRTSGHLLLGVVRIYHRKAKYLLADCNEAFIKIKMAFRPGVVDLPEENREAAYNAITLPEEFHDFDQPLPDLDDIDVAQQFSLNQSRVEEITMREEVGNISILQENDFGDFGMDDREIMREGSAFEDDDMLVSTTTSNLLLESEQSTSNLNEKINHLEYEDQYKDDNFGEGNDGGILDDKLISNNDGGIFDDPPALSEAGVMLPEQPAHDDMDEDDNVSMGGPDSPDSVDPVEPMPTMTDQTTLVPNEEEAFALEPIDITVKETKAKRKRKLIVDSVKELDSKTIRAQLSDYSDIVTTLDLAPPTKKLMMWKETGGVEKLFSLPAQPLWNNRLLKLFTRCLTPLVPEDLRKRRKGGEADNLDEFLKEFENPEVPREDQQQQHQQRDVIDEPIIEEPSRLQESVMEASRTNIDESAMPPPPPQGVKRKAGQIDPEPVMPPQQVEQMEIPPVELPPEEPPNICQLIPELELLPEKEKEKEKEKEDDEEEEDEDASGGDQDQEERRWNKRTQQMLHGLQRALAKTGAESISLLELCRNTNRKQAAAKFYSFLVLKKQQAIELTQEEPYSDIIATPGPRFHII
# Variants of: B1
# Test: co-immunoprecipitation (anti-FLAG IP), capillary immunodetection assay; HEK293; read off a plot
row,Variant,ratio to parent
1,chain 1 D797K,~0.08
2,chain 1 D797A,~0.06
